The values below are quoted from earlier work in article PMC4329993.

The series deals with GLP-1 receptor (Homo sapiens) (UniProt P43220).
UniProt P43220, sequence (P43220 24-463): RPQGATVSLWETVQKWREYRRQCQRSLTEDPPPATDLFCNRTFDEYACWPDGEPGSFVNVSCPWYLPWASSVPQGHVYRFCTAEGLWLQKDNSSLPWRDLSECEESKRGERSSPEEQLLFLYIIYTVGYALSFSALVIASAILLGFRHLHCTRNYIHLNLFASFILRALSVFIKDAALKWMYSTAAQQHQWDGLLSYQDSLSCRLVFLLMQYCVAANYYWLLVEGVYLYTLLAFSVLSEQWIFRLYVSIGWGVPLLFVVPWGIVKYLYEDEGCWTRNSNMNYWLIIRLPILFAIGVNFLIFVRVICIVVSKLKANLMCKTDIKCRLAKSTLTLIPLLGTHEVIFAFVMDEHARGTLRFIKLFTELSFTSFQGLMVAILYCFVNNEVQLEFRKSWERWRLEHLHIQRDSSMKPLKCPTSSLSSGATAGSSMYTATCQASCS

GLP-1, sequence (P01275 98-127): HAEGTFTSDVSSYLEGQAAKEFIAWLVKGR

Consider GLP-1 (from UniProt P01275), for which the Kd (usually the concentration at which binding is half-saturated) is 0.3 nM.
